Laboratory results published in the supplement of paper PMC7877785.
± gives the uncertainty stated by the source.

Test: self-splicing fitness, log relative to wild type (ln ratio); higher = more splicing; Tetrahymena group I intron in knt gene, E. coli kanamycin selection, DiMSum; sequences stand for … in CUCUCU…GGAGGGAAAAGUUAUCAGGCAUGCACCUGGUAGCUAGUCUUUAAACCAAUAGAUUGCAUCGGUUUAAAAGGCAAGACCGUCAAAUUGCGGGAAAGGGGUCAACAGCCGUUCAGUACCAAGUCUCAGGGGAAACUUUGAGAUGGCCUUGCAAAGGGUAUGGUAAUAAGCUGACGGACAUGGUCCUAACCACGCAGCCAAGUCCUAAGUCAACAGAUCUUCUGUUGAUAUGGAUGCAGUUCACAGACUAAAUGUCGGUCGGGGAAGAUGUAUUCUUCUCAUAAGAUAUAGUCGGACCUCUCCUUAAUGGGAGCUAGCGGAUGAAGUGAUGCAACACUGGAGCCGCUGGGAACUAAUUUGUAUGCGAAAGUAUAUUGAUUAGUUUUGGAGUACUCGUGGUCG
Method in brief: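 Six replicate transformations of E. coli BL21(DE3) with a pET-22b(+) library were grown overnight at 37°C or 30°C. The library randomised all eight P1ex-region intron nucleotides, the intron lying in the knt kanamycin-resistance gene, and plates were LB agar with or without 25 μg/mL kanamycin plus 100 μg/mL carbenicillin, 50 μM IPTG and 0.2% rhamnose. Pooled colonies were amplicon-sequenced on an Illumina HiSeq 2500, and fitness is the DiMSum error-weighted combination of wild-type-normalised replicate fold changes, kanamycin versus none.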

| Sequence | self-splicing fitness (ln) (30 °C) | self-splicing fitness (ln) (37 °C) |
| --- | --- | --- |
| AGUGAGCAAUAUUACGAAGG | -3.45 ± 0.37 | -1.41 ± 0.38 |
| AUCAAGCAAUAUUACGAAAU | -2.09 ± 0.078 | -1.04 ± 0.092 |
| ACUAAGCAAUAUUACGCAGC | -2.94 ± 0.36 | -0.621 ± 0.18 |
| GACUAGCAAUAUUACGUAAC | -1.33 ± 0.073 | -0.875 ± 0.1 |
| AGCUAGCAAUAUUACGCGGU | -4.02 ± 0.27 | -1.71 ± 0.13 |
| GCAGAGCAAUAUUACGUUAC | -2.97 ± 0.16 | -1.38 ± 0.17 |
| CCUAAGCAAUAUUACGAAUG | -1.63 ± 0.14 | -2.23 ± 0.16 |
| CAUAAGCAAUAUUACGAUAC |  | -2.28 ± 0.34 |
| AAACAGCAAUAUUACGAUUA | -1.16 ± 0.092 | -0.343 ± 0.094 |
| AUUUAGCAAUAUUACGUGAC | -2.58 ± 0.18 | -1.49 ± 0.36 |
| AGACAGCAAUAUUACGGACG | -1.14 ± 0.066 | -0.531 ± 0.071 |
| UUGAAGCAAUAUUACGGGCG | -0.128 ± 0.061 | 0.407 ± 0.084 |
| CGUAAGCAAUAUUACGCCAA | -3.24 ± 0.33 | -1.91 ± 0.4 |
| GGCCAGCAAUAUUACGAUUU | -1.9 ± 0.12 | -0.659 ± 0.13 |
| UCUCAGCAAUAUUACGUAGU | -1.71 ± 0.1 | -0.822 ± 0.11 |
| ACGAAGCAAUAUUACGCAAC | -3.3 ± 0.25 | -2.38 ± 0.39 |
| GUUCAGCAAUAUUACGGCCC | -0.59 ± 0.19 | 0.24 ± 0.24 |

| Sequence | self-splicing fitness (ln) (30 °C) | self-splicing fitness (ln) (37 °C) |
| --- | --- | --- |
| CGCAAGCAAUAUUACGGAAC | -3.07 ± 0.21 | -2.87 ± 0.32 |
| GAGAAGCAAUAUUACGCUUA | -2.41 ± 0.12 | -1.24 ± 0.13 |
| GUUGAGCAAUAUUACGCGCG | -1.82 ± 0.21 | -1.51 ± 0.23 |
| ACGCAGCAAUAUUACGUAAA | -2.06 ± 0.12 | -1.95 ± 0.2 |
| GUAAAGCAAUAUUACGCGAA | -0.868 ± 0.08 | -1.25 ± 0.1 |
| UGCGAGCAAUAUUACGUGCU |  | -1.79 ± 0.32 |
| AGCGAGCAAUAUUACGAGUA | -1.68 ± 0.26 | -1.18 ± 0.29 |
| CCAAAGCAAUAUUACGGCAC | -4.07 ± 0.24 | -2.89 ± 0.21 |
| CAGGAGCAAUAUUACGUAUG | -2.27 ± 0.082 | -1.5 ± 0.11 |
| UGCCAGCAAUAUUACGCGUG | -1.71 ± 0.086 | -0.381 ± 0.089 |
| GAGCAGCAAUAUUACGCAUC | -3.22 ± 0.2 | -3.08 ± 0.37 |
| UACUAGCAAUAUUACGAGAG | -2.94 ± 0.13 | -2.43 ± 0.18 |
| AUUUAGCAAUAUUACGAAUC | -4.21 ± 0.31 | -3.21 ± 0.35 |
| AAGAAGCAAUAUUACGAUGG | -1.93 ± 0.14 | -2 ± 0.22 |
| GUAUAGCAAUAUUACGUAAC | -1.95 ± 0.36 | -1.98 ± 0.32 |
| CAAUAGCAAUAUUACGGAUC | -3.15 ± 0.37 |  |
| UGCCAGCAAUAUUACGCUGC | -3.85 ± 0.31 | -2.47 ± 0.28 |
